Experimental findings from the supplement of paper PMC10126150 are described below.

± gives the standard deviation of the averaged measurements.
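Note: ATP exposure 15 min at 22 °C before imaging.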

For the data set, the system named is ATP. Kind of data set: switch fluorescence ratio, 500 uM ATP over buffer (Cy3 cluster intensity, sum of 5 cycles each) (fold (ratio)); higher = stronger signal-on switching upon ATP binding; sequences stand for … in TCGTCGGCAGCGTCAGATGTGTATAAGAGACAGTTTTTTTTTTTTTTTTTTTTTTTTT…TC. The note with it: aptamer strand: ATP DNA aptamer (quencher-CACCTGGGGGAGTATTGCGGAGGAAGG + anchor), 100 nM annealed; ATP concentration: 500 uM. Summed up:
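Values give the fluorescence ratio for each switch-domain sequence, averaged from per-cluster ratios of summed target-cycle to summed buffer-cycle Cy3 intensity. The Cy3-labelled switching-strand clusters sat on a modified Illumina MiSeq flow-cell, were annealed to 100 nM quencher-labelled ATP aptamer, and were imaged in selection buffer, then after 15 min with 500 uM ATP at 22 °C. Five cycles ran with NaOH stripping and re-annealing between them, and clusters outside 100-1000 RFU were excluded.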
Regarding TCTTGTTGGG, the switch fluorescence ratio stood at 1.01 ± 0.023.

On to GTACGGGGAA, for which the switch fluorescence ratio worked out at 1.04 ± 0.03.

CTTGAATTTC: the switch fluorescence ratio was determined as 0.987 ± 0.017.

For GGTAACGTTT, the switch fluorescence ratio worked out at 0.985 ± 0.027.

For the sequence GGGACTTTTT, the switch fluorescence ratio was found to be 0.999 ± 0.043.

For GTAGGCTAGT, the switch fluorescence ratio was found to be 1 ± 0.033.

Turning to AGATCGTGAA, the switch fluorescence ratio was 1 ± 0.0032.

Regarding CGATGGGGGC, the switch fluorescence ratio is 0.957 ± 0.068.

Regarding ACGGGTAATC, the switch fluorescence ratio amounted to 1.071 ± 0.0095.

Turning to GAGTTCGAGG, the switch fluorescence ratio was 1.02 ± 0.037.

For the sequence CAGTGGATCG, the switch fluorescence ratio worked out at 1.008 ± 0.0011.

In the case of TTGTTTCTTT, the switch fluorescence ratio turned out to be 1 ± 0.017.

As to GGATTCATGG, the switch fluorescence ratio amounted to 1.01 ± 0.021.

Take ACGCGGGGGT: the switch fluorescence ratio amounted to 1.07 ± 0.069.

As to CGGTAACGAA, the switch fluorescence ratio came to 1.04 ± 0.014.

In the case of GTGTGGGGCC, the switch fluorescence ratio came to 0.973 ± 0.012.

AAGTTGATTA: the switch fluorescence ratio came to 1.006 ± 0.004.

Take ATGGGGAGGC: the switch fluorescence ratio stood at 1.05 ± 0.051.

For the sequence GTTTGAATGT, the switch fluorescence ratio amounted to 0.97301 ± 0.0004.

Take ACCGCACGGA: the switch fluorescence ratio turned out to be 1.55 ± 0.29.

For the sequence TGCAAACCTT, the switch fluorescence ratio amounted to 2.39 ± 0.047.

As to TACGGGATGT, the switch fluorescence ratio is 1.046 ± 0.0092.

With AGCATAGTCG, the switch fluorescence ratio stood at 1.04 ± 0.029.

On to TGGATGGCGT, for which the switch fluorescence ratio was determined as 1.101 ± 0.0046.

For the sequence GGAACCAGGC, the switch fluorescence ratio stood at 1.12 ± 0.032.

ATAACGGGGG: the switch fluorescence ratio came out at 1 ± 0.033.

Turning to GGGCGCGTTT, the switch fluorescence ratio came to 0.9623 ± 0.0072.

On to GATTCTATAG, for which the switch fluorescence ratio came to 0.988 ± 0.036.

With TTGAACGTGT, the switch fluorescence ratio turned out to be 0.994 ± 0.042.

Take CGTGATTACT: the switch fluorescence ratio came to 1.17 ± 0.11.

Take TTTTTCACGC: the switch fluorescence ratio stood at 1.04 ± 0.019.

In the case of CTCGGCTGGT, the switch fluorescence ratio was 1.01 ± 0.019.

For GTGTTGGACC, the switch fluorescence ratio amounted to 0.9782 ± 0.00099.

With ATGTGTTACA, the switch fluorescence ratio came to 1.01 ± 0.03.

TGCCGTCGGC: the switch fluorescence ratio worked out at 0.949 ± 0.06.

Take GAGGGCTAGT: the switch fluorescence ratio is 0.9713 ± 0.0027.

For TCGGGTTTTC, the switch fluorescence ratio is 1 ± 0.039.

Consider TCGACCTAAT, for which the switch fluorescence ratio is 1.077 ± 0.01.

In the case of TCGAAATTCG, the switch fluorescence ratio was 1.02 ± 0.019.

Turning to CGACGTGCGG, the switch fluorescence ratio is 0.9944 ± 0.0062.

Turning to CCGGGTTTCG, the switch fluorescence ratio amounted to 0.996 ± 0.035.

For the sequence TGTCCATGGG, the switch fluorescence ratio came out at 1.013 ± 0.0047.

As to GGGATTAAGA, the switch fluorescence ratio turned out to be 0.98 ± 0.026.

Take CAACTGTTTT: the switch fluorescence ratio was 1.04 ± 0.1.

On to AAAAAGGTTA, for which the switch fluorescence ratio stood at 0.998 ± 0.025.

Take AGATAGTTGG: the switch fluorescence ratio stood at 0.99 ± 0.038.

On to GCTTGGGGAT, for which the switch fluorescence ratio was 1.01 ± 0.033.

In the case of GGTATTGTAG, the switch fluorescence ratio was 0.982 ± 0.025.

For the sequence TTCGGAATTT, the switch fluorescence ratio is 0.9882 ± 0.0083.

As to AGGTCCGGGT, the switch fluorescence ratio was 0.9981 ± 0.0065.

As for GTTACAAGAC, the switch fluorescence ratio amounted to 1.21 ± 0.048.

Regarding CAGCTGGGAG, the switch fluorescence ratio stood at 1.03 ± 0.011.

For AGTGTTTGGC, the switch fluorescence ratio amounted to 1.01 ± 0.022.

For the sequence TTAGTAATGT, the switch fluorescence ratio is 1.06 ± 0.072.

Regarding GCATTATATG, the switch fluorescence ratio was 1 ± 0.03.

As to AAAGAAAGGT, the switch fluorescence ratio was 1.02 ± 0.024.

TATGTTTGGC: the switch fluorescence ratio worked out at 1 ± 0.04.

Regarding GGGGGGGCAA, the switch fluorescence ratio turned out to be 1.24 ± 0.48.

Turning to GATAGAAGTG, the switch fluorescence ratio stood at 0.986 ± 0.014.

In the case of GGGGTTCTGC, the switch fluorescence ratio was determined as 0.952 ± 0.039.

Turning to ATACTTTTGG, the switch fluorescence ratio stood at 1 ± 0.011.

Turning to AAAGATCGGA, the switch fluorescence ratio was 0.983 ± 0.038.

On to GTGACCAGAA, for which the switch fluorescence ratio came to 0.983 ± 0.025.

Consider ATCGGGGGAA, for which the switch fluorescence ratio stood at 1.05 ± 0.062.

In the case of TGTGGCGTAT, the switch fluorescence ratio stood at 1.011 ± 0.0014.

CAATTTCCAG: the switch fluorescence ratio turned out to be 1.02 ± 0.026.

For GGTCTAACAT, the switch fluorescence ratio stood at 0.998 ± 0.015.

As to AAGACTTTTT, the switch fluorescence ratio turned out to be 1.025 ± 0.0076.

For the sequence GGGAAAAGGT, the switch fluorescence ratio was found to be 1.04 ± 0.021.

Regarding GTGAGAGGTG, the switch fluorescence ratio amounted to 1.05 ± 0.052.

As for CAAGGAGTTA, the switch fluorescence ratio amounted to 1.01 ± 0.04.

In the case of CGATGCTCCG, the switch fluorescence ratio is 0.932 ± 0.024.

As to GCATTAAAAT, the switch fluorescence ratio amounted to 0.9578 ± 0.0013.

With AAACATGGAG, the switch fluorescence ratio worked out at 1 ± 0.019.

In the case of CATGTGCTTC, the switch fluorescence ratio was determined as 1.03 ± 0.0077.

CGGTATGGTA: the switch fluorescence ratio worked out at 0.972 ± 0.023.

With TATATATGTA, the switch fluorescence ratio came to 1.01 ± 0.05.

For ATCGCTGGTA, the switch fluorescence ratio stood at 1.02 ± 0.031.

Take TGGGCCGGTT: the switch fluorescence ratio turned out to be 1.05 ± 0.099.

For TCTATGCTTA, the switch fluorescence ratio was 1.01 ± 0.038.

For the sequence GGGGAAGGCC, the switch fluorescence ratio was 1.01 ± 0.018.

Turning to GCTACGGGGG, the switch fluorescence ratio turned out to be 1.02 ± 0.037.

Consider AGGGAGAAGT, for which the switch fluorescence ratio was found to be 0.9853 ± 0.002.

As to ACGGGGTCAC, the switch fluorescence ratio worked out at 1.026 ± 0.0017.

For the sequence TTCGTTGGTG, the switch fluorescence ratio was 0.969 ± 0.035.

As for GGGGACTGGG, the switch fluorescence ratio turned out to be 1 ± 0.058.

Take GGGGTTAGTT: the switch fluorescence ratio is 0.993 ± 0.023.

In the case of CAGCACGATA, the switch fluorescence ratio stood at 1.1615 ± 0.00014.

Take TTCTGCTTAG: the switch fluorescence ratio is 2.04 ± 0.039.

For CTCGACGGGG, the switch fluorescence ratio worked out at 0.975 ± 0.035.

With CGTTTAACGT, the switch fluorescence ratio worked out at 0.989 ± 0.047.

As for GGTATCAGGG, the switch fluorescence ratio turned out to be 0.999 ± 0.022.

For the sequence ATATCTAGTT, the switch fluorescence ratio stood at 0.989 ± 0.084.

As for AAGGCAAATT, the switch fluorescence ratio stood at 0.986 ± 0.026.

For the sequence AAATCTCTTA, the switch fluorescence ratio came out at 0.997 ± 0.015.

In the case of AGTAGAAATG, the switch fluorescence ratio is 0.991 ± 0.012.

Regarding TACGGGGGAG, the switch fluorescence ratio was found to be 0.995 ± 0.02.

With TCGGGTCGGG, the switch fluorescence ratio is 1 ± 0.021.

As for CGATTCGAGT, the switch fluorescence ratio amounted to 0.967 ± 0.016.

TTTTTATCTG: the switch fluorescence ratio was determined as 0.9654 ± 0.002.

As for TTTTGAAGTT, the switch fluorescence ratio is 1 ± 0.039.

On to GCTTTATCGG, for which the switch fluorescence ratio came out at 0.965 ± 0.025.

TGCCGGCGGG: the switch fluorescence ratio was 0.9629 ± 0.0043.

On to CGGTAACCGC, for which the switch fluorescence ratio was 0.994 ± 0.098.

As for GCCGGGGCAA, the switch fluorescence ratio came to 1.33 ± 0.024.

Consider TCGAAGGATA, for which the switch fluorescence ratio turned out to be 0.992 ± 0.011.

On to CATAAGGCTC, for which the switch fluorescence ratio was determined as 1 ± 0.02.

Take TTGTTTCAGG: the switch fluorescence ratio turned out to be 1.01 ± 0.018.

Take TTAATGGCGA: the switch fluorescence ratio turned out to be 0.986 ± 0.033.

For TGGGCGCCGG, the switch fluorescence ratio was 1 ± 0.013.

Turning to CGTGAGGTGA, the switch fluorescence ratio amounted to 1.01 ± 0.035.

CGATGGGATT: the switch fluorescence ratio was determined as 1.056 ± 0.0043.

For GGGGGTTTTT, the switch fluorescence ratio is 0.997 ± 0.033.

In the case of AGGCCTTGTT, the switch fluorescence ratio is 0.974 ± 0.019.

For the sequence CGGAGGGGCT, the switch fluorescence ratio came out at 1.03 ± 0.015.

For the sequence TGGGGGAATC, the switch fluorescence ratio worked out at 1.02 ± 0.046.

In the case of ACTCGACCTT, the switch fluorescence ratio was found to be 1.21 ± 0.15.

For GGTGTACGGA, the switch fluorescence ratio came to 0.972 ± 0.043.

As to CAAGCTTGAA, the switch fluorescence ratio came to 0.963 ± 0.026.

With TTACGGTGTC, the switch fluorescence ratio was 1.02 ± 0.025.
